This note sets out measurements from PMC11260460, “A Plasmodium apicoplast-targeted unique exonuclease/FEN exhibits interspecies functional differences attributable to an insertion that alters DNA-binding”.

The target of data set [1] is T1, PfExo (Plasmodium falciparum 3D7, UniProt O96139 91-577).
T1 sequence: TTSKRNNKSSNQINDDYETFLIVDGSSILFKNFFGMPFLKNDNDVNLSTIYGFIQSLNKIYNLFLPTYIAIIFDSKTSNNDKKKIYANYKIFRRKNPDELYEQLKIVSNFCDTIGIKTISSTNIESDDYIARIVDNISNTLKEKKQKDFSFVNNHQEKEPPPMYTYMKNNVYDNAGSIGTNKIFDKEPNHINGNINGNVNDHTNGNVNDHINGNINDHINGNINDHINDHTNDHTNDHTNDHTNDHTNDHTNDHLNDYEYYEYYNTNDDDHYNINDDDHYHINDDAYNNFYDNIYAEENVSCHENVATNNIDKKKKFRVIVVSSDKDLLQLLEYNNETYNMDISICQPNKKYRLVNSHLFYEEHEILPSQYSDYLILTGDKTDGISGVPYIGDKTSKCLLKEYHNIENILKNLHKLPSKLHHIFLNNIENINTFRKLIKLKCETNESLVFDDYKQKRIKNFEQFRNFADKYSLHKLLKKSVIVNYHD
The experiment in a line: BLI; KD value only in figure; EMSA: 400 nM FAM-DNA, binding buffer as printed 200 mM HEPES pH 8.0, 500 mM NaCl, 10 mM DTT, 1 mg/ml BSA, 10% glycerol, 2 mM MgCl2, 30 min on ice, 6% native PAGE; BLI: 1x kinetic buffer in 1x PBS, Octet R8, 1:1 global fit. As to conditions: protein: recombinant; tags: C-terminal 6xHis; label: 5' biotin on strand 1; blunt.

Data set [2] has as its target T2, PfExoΔins (Plasmodium falciparum 3D7, UniProt O96139 91-577, del241-393). Kind of data set: BLI; EMSA: 400 nM FAM-DNA, binding buffer as printed 200 mM HEPES pH 8.0, 500 mM NaCl, 10 mM DTT, 1 mg/ml BSA, 10% glycerol, 2 mM MgCl2, 30 min on ice, 6% native PAGE; BLI: 1x kinetic buffer in 1x PBS, Octet R8, 1:1 global fit. The following applies: protein: recombinant; tags: C-terminal 6xHis; label: 5' biotin on strand 1; blunt.

In data set [3] the target is T1, PfExo. The experiment in a line: EMSA; 2 mM Mg2+; EMSA: 400 nM FAM-DNA, binding buffer as printed 200 mM HEPES pH 8.0, 500 mM NaCl, 10 mM DTT, 1 mg/ml BSA, 10% glycerol, 2 mM MgCl2, 30 min on ice, 6% native PAGE; BLI: 1x kinetic buffer in 1x PBS, Octet R8, 1:1 global fit. As to conditions: protein: recombinant, tags: C-terminal 6xHis. On the technique in general: A gel shift assay detects complexes by their altered migration in electrophoresis.

Data set [4] addresses T2, PfExoΔins. The description is as above. As to conditions: protein: recombinant, tags: C-terminal 6xHis.

B1: BLI blunt-end dsDNA (34 bp) (dsDNA)
DNA 1: CAGTCCGAGCTAGGCAACATACGATAATCCATAC
DNA 2: GTATGGATTATCGTATGTTGCCTAGCTCGGACTG
Regarding B1, the binding result with PfExo [1] is “binds”. Besides, in the data set with PfExoΔins [2], the binding signal was approximately 5 fold higher KD than PfExo.

B2: 5'-flap DNA (dsDNA)
DNA 1: AAAACGTCAACTAGCTTCTCAAACAGCTCATATATCTTAA
DNA 2: B1 DNA 1
DNA 3: TTAAGATATATGAGCAGTATGGATTATCGTATGTTGCCTAGCTCGGACTG
For B2, the binding result in the data set with PfExo [3] (label: FAM, 5' flap) is reported as “binds”; in the data set with PfExoΔins [4] (label: FAM, 5' flap), “no binding”.

B3: Blunt-end dsDNA (14 bp) (dsDNA)
DNA 1: CTAGTGTACATGCA
DNA 2: TGCATGTACACTAG
Consider B3, for which, in the data set with PfExoΔins [4] (label: 3' 6-FAM on strand 1, blunt), the binding result is reported as “no binding”. For the molecule AAAACGTCAACTAGCTTCTCAAACACCTCATATATCTTAA (ssDNA) [ssDNA 5'-3' exo substrate], the binding result with PfExo [3] (label: 3' 6-FAM, single strand) is listed as “binds”.

Regarding AAAACGTCAACTAGCTTCTCAAACAGCTCATATATCTTAA (ssDNA) [ssDNA 3'-5' exo substrate], the binding result with PfExo [3] (label: 5' 6-FAM, single strand) was “binds”.
